Assay results: US20260001928A1 (CORTERIA PHARMACEUTICALS, priority 2022, published 2026)
Values belong to the binder of their own block, whether it stands above or below them. *1 amine or outer side, *2 acyl side, *3 side chain or, on linkers, in order; H or OH if unused. Where no end group is shown, it is not given here. Side-chain parts run from the residue outwards. [ ]: non-standard residue; d: D form. The star is where a group is joined. C18 diacid = O=C(O)CCCCCCCCCCCCCCCCC(=O)*; C16 diacid = O=C(O)CCCCCCCCCCCCCCC(=O)*; γGlu = O=C(O)[C@H](CCC(=O)[*:2])N[*:1]; NMeI = CC[C@H](C)[C@H](NC)C(=O)O; Api = NC1(C(=O)O)CCNCC1; AEEA = NCCOCCOCC(=O)O

Key:
[1] = target: human corticotropin-releasing factor 2a (CRF2a receptor) (human), Q13324; assay: cell-based or functional assay
human corticotropin-releasing factor 2a (CRF2a receptor) (human), Q13324, sequence (Q13324 20-411): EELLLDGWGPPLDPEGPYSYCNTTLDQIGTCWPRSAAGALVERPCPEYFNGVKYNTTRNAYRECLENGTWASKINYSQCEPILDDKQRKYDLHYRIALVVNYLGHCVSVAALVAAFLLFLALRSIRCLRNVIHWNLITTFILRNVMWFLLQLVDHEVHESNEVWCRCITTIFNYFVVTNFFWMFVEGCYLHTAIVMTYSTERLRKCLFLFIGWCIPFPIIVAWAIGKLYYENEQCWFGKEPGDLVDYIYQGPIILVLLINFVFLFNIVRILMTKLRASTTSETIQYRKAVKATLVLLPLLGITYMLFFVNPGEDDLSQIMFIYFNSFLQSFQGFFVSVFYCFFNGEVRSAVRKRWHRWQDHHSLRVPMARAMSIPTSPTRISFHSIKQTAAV

CRF1R receptor = target: T1, CRF1R receptor (UniProt P34998 24-415, limits assumed); assay: cell-based or functional assay
T1 sequence (looked up): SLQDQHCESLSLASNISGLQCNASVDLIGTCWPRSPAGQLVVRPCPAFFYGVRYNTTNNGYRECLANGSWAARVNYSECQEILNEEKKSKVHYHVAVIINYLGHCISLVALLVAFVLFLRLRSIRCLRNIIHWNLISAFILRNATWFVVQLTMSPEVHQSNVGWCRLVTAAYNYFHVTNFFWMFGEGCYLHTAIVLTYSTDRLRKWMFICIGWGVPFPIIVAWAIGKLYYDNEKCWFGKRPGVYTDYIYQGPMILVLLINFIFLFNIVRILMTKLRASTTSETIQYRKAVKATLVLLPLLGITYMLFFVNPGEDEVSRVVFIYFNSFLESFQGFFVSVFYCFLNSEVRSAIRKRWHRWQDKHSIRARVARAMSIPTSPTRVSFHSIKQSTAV

- EC50 [nM] (cAMP) [1]: 0.44 nM
- EC50 (CRF1R receptor): > 250 nM
- Emax (% I) (CRF1R receptor): 4%
B1: SEQ ID NO 149 (peptide)
peptide: IVLSLDVPIKLK([AEEA-AEEA-γGlu-C18 diacid])KILLEQEKQKKQREQAETNKQILAQV-NH2
modifications: not fully specified (residue 7); printed as IVLSLDVPIKLK*KILLEQEKQKKQREQAETNKQILAQV-NH2

- EC50 [nM] (cAMP) [1]: 0.12 nM
B6: SEQ ID NO 151 (peptide)
peptide: H-IVLSLD[dV]PIKLK([γGlu-C16 diacid])QILLKQERQKKQREQAEKNKQILEQV-NH2
SMILES: CC[C@H](C)[C@H](N)C(=O)N[C@H](C(=O)N[C@@H](CC(C)C)C(=O)N[C@@H](CO)C(=O)N[C@@H](CC(C)C)C(=O)N[C@@H](CC(=O)O)C(=O)N[C@@H](C(=O)N1CCC[C@H]1C(=O)N[C@H](C(=O)N[C@@H](CCCCN)C(=O)N[C@@H](CC(C)C)C(=O)N[C@@H](CCCCNC(=O)CC[C@H](NC(=O)CCCCCCCCCCCCCCC(=O)O)C(=O)O)C(=O)N[C@@H](CCC(N)=O)C(=O)N[C@H](C(=O)N[C@@H](CC(C)C)C(=O)N[C@@H](CC(C)C)C(=O)N[C@@H](CCCCN)C(=O)N[C@@H](CCC(N)=O)C(=O)N[C@@H](CCC(=O)O)C(=O)N[C@@H](CCCNC(=N)N)C(=O)N[C@@H](CCC(N)=O)C(=O)N[C@@H](CCCCN)C(=O)N[C@@H](CCCCN)C(=O)N[C@@H](CCC(N)=O)C(=O)N[C@@H](CCCNC(=N)N)C(=O)N[C@@H](CCC(=O)O)C(=O)N[C@@H](CCC(N)=O)C(=O)N[C@@H](C)C(=O)N[C@@H](CCC(=O)O)C(=O)N[C@@H](CCCCN)C(=O)N[C@@H](CC(N)=O)C(=O)N[C@@H](CCCCN)C(=O)N[C@@H](CCC(N)=O)C(=O)N[C@H](C(=O)N[C@@H](CC(C)C)C(=O)N[C@@H](CCC(=O)O)C(=O)N[C@@H](CCC(N)=O)C(=O)N[C@H](C(N)=O)C(C)C)[C@@H](C)CC)[C@@H](C)CC)[C@@H](C)CC)C(C)C)C(C)C

The remaining lines, values behind:

B2: SEQ ID NO 72 (peptide)
peptide: [NMeI]VLSLD[dV]PIKLK([γGlu-C16 diacid])KILLEQEKQKKQREQAETN[Api]QILAQV-NH2
modifications: N-terminus assumed
SMILES: CC[C@H](C)[C@H](NC)C(=O)N[C@H](C(=O)N[C@@H](CC(C)C)C(=O)N[C@@H](CO)C(=O)N[C@@H](CC(C)C)C(=O)N[C@@H](CC(=O)O)C(=O)N[C@@H](C(=O)N1CCC[C@H]1C(=O)N[C@H](C(=O)N[C@@H](CCCCN)C(=O)N[C@@H](CC(C)C)C(=O)N[C@@H](CCCCNC(=O)CC[C@H](NC(=O)CCCCCCCCCCCCCCC(=O)O)C(=O)O)C(=O)N[C@@H](CCCCN)C(=O)N[C@H](C(=O)N[C@@H](CC(C)C)C(=O)N[C@@H](CC(C)C)C(=O)N[C@@H](CCC(=O)O)C(=O)N[C@@H](CCC(N)=O)C(=O)N[C@@H](CCC(=O)O)C(=O)N[C@@H](CCCCN)C(=O)N[C@@H](CCC(N)=O)C(=O)N[C@@H](CCCCN)C(=O)N[C@@H](CCCCN)C(=O)N[C@@H](CCC(N)=O)C(=O)N[C@@H](CCCNC(=N)N)C(=O)N[C@@H](CCC(=O)O)C(=O)N[C@@H](CCC(N)=O)C(=O)N[C@@H](C)C(=O)N[C@@H](CCC(=O)O)C(=O)N[C@H](C(=O)N[C@@H](CC(N)=O)C(=O)NC1(C(=O)N[C@@H](CCC(N)=O)C(=O)N[C@H](C(=O)N[C@@H](CC(C)C)C(=O)N[C@@H](C)C(=O)N[C@@H](CCC(N)=O)C(=O)N[C@H](C(N)=O)C(C)C)[C@@H](C)CC)CCNCC1)[C@@H](C)O)[C@@H](C)CC)[C@@H](C)CC)C(C)C)C(C)C
- EC50 [nM] (cAMP) [1]: 0.14 nM
- Emax (% I) (CRF1R receptor): 18%

B3: SEQ ID NO 71 (peptide)
peptide: [NMeI]VLSLD[dV]PIKLK([γGlu-C16 diacid])KILLEQEKQKKQREQAETNEQILAQV-NH2
modifications: N-terminus assumed
SMILES: CC[C@H](C)[C@H](NC)C(=O)N[C@H](C(=O)N[C@@H](CC(C)C)C(=O)N[C@@H](CO)C(=O)N[C@@H](CC(C)C)C(=O)N[C@@H](CC(=O)O)C(=O)N[C@@H](C(=O)N1CCC[C@H]1C(=O)N[C@H](C(=O)N[C@@H](CCCCN)C(=O)N[C@@H](CC(C)C)C(=O)N[C@@H](CCCCNC(=O)CC[C@H](NC(=O)CCCCCCCCCCCCCCC(=O)O)C(=O)O)C(=O)N[C@@H](CCCCN)C(=O)N[C@H](C(=O)N[C@@H](CC(C)C)C(=O)N[C@@H](CC(C)C)C(=O)N[C@@H](CCC(=O)O)C(=O)N[C@@H](CCC(N)=O)C(=O)N[C@@H](CCC(=O)O)C(=O)N[C@@H](CCCCN)C(=O)N[C@@H](CCC(N)=O)C(=O)N[C@@H](CCCCN)C(=O)N[C@@H](CCCCN)C(=O)N[C@@H](CCC(N)=O)C(=O)N[C@@H](CCCNC(=N)N)C(=O)N[C@@H](CCC(=O)O)C(=O)N[C@@H](CCC(N)=O)C(=O)N[C@@H](C)C(=O)N[C@@H](CCC(=O)O)C(=O)N[C@H](C(=O)N[C@@H](CC(N)=O)C(=O)N[C@@H](CCC(=O)O)C(=O)N[C@@H](CCC(N)=O)C(=O)N[C@H](C(=O)N[C@@H](CC(C)C)C(=O)N[C@@H](C)C(=O)N[C@@H](CCC(N)=O)C(=O)N[C@H](C(N)=O)C(C)C)[C@@H](C)CC)[C@@H](C)O)[C@@H](C)CC)[C@@H](C)CC)C(C)C)C(C)C
- EC50 [nM] (cAMP) [1]: 0.21 nM
- Emax (% I) (CRF1R receptor): -4%

B4: SEQ ID NO 116 (peptide)
peptide: [NMeI]VLSLD[dV]PIKLK([AEEA-AEEA-γGlu-C18 diacid])KILLEQEKQKKQREQAETNEQILAQV-NH2
modifications: N-terminus assumed
SMILES: CC[C@H](C)[C@H](NC)C(=O)N[C@H](C(=O)N[C@@H](CC(C)C)C(=O)N[C@@H](CO)C(=O)N[C@@H](CC(C)C)C(=O)N[C@@H](CC(=O)O)C(=O)N[C@@H](C(=O)N1CCC[C@H]1C(=O)N[C@H](C(=O)N[C@@H](CCCCN)C(=O)N[C@@H](CC(C)C)C(=O)N[C@@H](CCCCNC(=O)COCCOCCNC(=O)COCCOCCNC(=O)CC[C@H](NC(=O)CCCCCCCCCCCCCCCCC(=O)O)C(=O)O)C(=O)N[C@@H](CCCCN)C(=O)N[C@H](C(=O)N[C@@H](CC(C)C)C(=O)N[C@@H](CC(C)C)C(=O)N[C@@H](CCC(=O)O)C(=O)N[C@@H](CCC(N)=O)C(=O)N[C@@H](CCC(=O)O)C(=O)N[C@@H](CCCCN)C(=O)N[C@@H](CCC(N)=O)C(=O)N[C@@H](CCCCN)C(=O)N[C@@H](CCCCN)C(=O)N[C@@H](CCC(N)=O)C(=O)N[C@@H](CCCNC(=N)N)C(=O)N[C@@H](CCC(=O)O)C(=O)N[C@@H](CCC(N)=O)C(=O)N[C@@H](C)C(=O)N[C@@H](CCC(=O)O)C(=O)N[C@H](C(=O)N[C@@H](CC(N)=O)C(=O)N[C@@H](CCC(=O)O)C(=O)N[C@@H](CCC(N)=O)C(=O)N[C@H](C(=O)N[C@@H](CC(C)C)C(=O)N[C@@H](C)C(=O)N[C@@H](CCC(N)=O)C(=O)N[C@H](C(N)=O)C(C)C)[C@@H](C)CC)[C@@H](C)O)[C@@H](C)CC)[C@@H](C)CC)C(C)C)C(C)C
- EC50 [nM] (cAMP) [1]: 0.37 nM
- Emax (% I) (CRF1R receptor): 0%

B5: SEQ ID NO 126 (peptide)
peptide: Ac-IVLSLD[dV]PIKLK([γGlu-C18 diacid])KILLEQEKQKKQREQAETNAQILAQV-NH2
SMILES: CC[C@H](C)[C@H](NC(C)=O)C(=O)N[C@H](C(=O)N[C@@H](CC(C)C)C(=O)N[C@@H](CO)C(=O)N[C@@H](CC(C)C)C(=O)N[C@@H](CC(=O)O)C(=O)N[C@@H](C(=O)N1CCC[C@H]1C(=O)N[C@H](C(=O)N[C@@H](CCCCN)C(=O)N[C@@H](CC(C)C)C(=O)N[C@@H](CCCCNC(=O)CC[C@H](NC(=O)CCCCCCCCCCCCCCCCC(=O)O)C(=O)O)C(=O)N[C@@H](CCCCN)C(=O)N[C@H](C(=O)N[C@@H](CC(C)C)C(=O)N[C@@H](CC(C)C)C(=O)N[C@@H](CCC(=O)O)C(=O)N[C@@H](CCC(N)=O)C(=O)N[C@@H](CCC(=O)O)C(=O)N[C@@H](CCCCN)C(=O)N[C@@H](CCC(N)=O)C(=O)N[C@@H](CCCCN)C(=O)N[C@@H](CCCCN)C(=O)N[C@@H](CCC(N)=O)C(=O)N[C@@H](CCCNC(=N)N)C(=O)N[C@@H](CCC(=O)O)C(=O)N[C@@H](CCC(N)=O)C(=O)N[C@@H](C)C(=O)N[C@@H](CCC(=O)O)C(=O)N[C@H](C(=O)N[C@@H](CC(N)=O)C(=O)N[C@@H](C)C(=O)N[C@@H](CCC(N)=O)C(=O)N[C@H](C(=O)N[C@@H](CC(C)C)C(=O)N[C@@H](C)C(=O)N[C@@H](CCC(N)=O)C(=O)N[C@H](C(N)=O)C(C)C)[C@@H](C)CC)[C@@H](C)O)[C@@H](C)CC)[C@@H](C)CC)C(C)C)C(C)C
- EC50 [nM] (cAMP) [1]: 0.05 nM
- Emax (% I) (CRF1R receptor): 20%

B7: SEQ ID NO 147 (peptide)
peptide: H-IVLSLD[dV]PIKLK([γGlu-γGlu-C16 diacid])QILLKQERQKKQREQAEKNKQILEQV-NH2
SMILES: CC[C@H](C)[C@H](N)C(=O)N[C@H](C(=O)N[C@@H](CC(C)C)C(=O)N[C@@H](CO)C(=O)N[C@@H](CC(C)C)C(=O)N[C@@H](CC(=O)O)C(=O)N[C@@H](C(=O)N1CCC[C@H]1C(=O)N[C@H](C(=O)N[C@@H](CCCCN)C(=O)N[C@@H](CC(C)C)C(=O)N[C@@H](CCCCNC(=O)CC[C@H](NC(=O)CC[C@H](NC(=O)CCCCCCCCCCCCCCC(=O)O)C(=O)O)C(=O)O)C(=O)N[C@@H](CCC(N)=O)C(=O)N[C@H](C(=O)N[C@@H](CC(C)C)C(=O)N[C@@H](CC(C)C)C(=O)N[C@@H](CCCCN)C(=O)N[C@@H](CCC(N)=O)C(=O)N[C@@H](CCC(=O)O)C(=O)N[C@@H](CCCNC(=N)N)C(=O)N[C@@H](CCC(N)=O)C(=O)N[C@@H](CCCCN)C(=O)N[C@@H](CCCCN)C(=O)N[C@@H](CCC(N)=O)C(=O)N[C@@H](CCCNC(=N)N)C(=O)N[C@@H](CCC(=O)O)C(=O)N[C@@H](CCC(N)=O)C(=O)N[C@@H](C)C(=O)N[C@@H](CCC(=O)O)C(=O)N[C@@H](CCCCN)C(=O)N[C@@H](CC(N)=O)C(=O)N[C@@H](CCCCN)C(=O)N[C@@H](CCC(N)=O)C(=O)N[C@H](C(=O)N[C@@H](CC(C)C)C(=O)N[C@@H](CCC(=O)O)C(=O)N[C@@H](CCC(N)=O)C(=O)N[C@H](C(N)=O)C(C)C)[C@@H](C)CC)[C@@H](C)CC)[C@@H](C)CC)C(C)C)C(C)C
- EC50 [nM] (cAMP) [1]: 0.18 nM
